Laboratory results taken from patent publication US20260167741A1.

Columns and labels:
[1] = target: monomeric FcγRIIa-131H (human) (UniProt P12318); assay: BLI (Octet), steady-state, antibody on FAB2G sensor
[2] = target: monomeric FcγRIIa-131R (human) (UniProt P12318); assay: as above
[3] = target: monomeric FcγRIIb (human) (UniProt P31994); assay: as above
monomeric FcγRI (human) = monomeric FcγRI (human) (UniProt P12314); assay: BLI (Octet), antibody on FAB2G sensor, monomeric FcγR in solution
[4] = target: monomeric FcγRIIIa-158F (human) (UniProt P08637); assay: as above
[5] = target: monomeric FcγRIIIa-158V (human) (UniProt P08637); assay: as above
[6] = target: tetrameric FcγRI-streptavidin-His labelled with Alexa647 (human) (UniProt P12314); assay: flow cytometry: SKOV-3 (HER2-expressing) cells treated with 100 nM antibody, then tetrameric FcγRI-Alexa647 (50 or 100 nM by paragraph 186, not said on the sheet)
Chain of tetrameric FcγRI-streptavidin-His labelled with Alexa647 (human) (P12314 other isoform, or with tags, fused parts or gaps limits assumed): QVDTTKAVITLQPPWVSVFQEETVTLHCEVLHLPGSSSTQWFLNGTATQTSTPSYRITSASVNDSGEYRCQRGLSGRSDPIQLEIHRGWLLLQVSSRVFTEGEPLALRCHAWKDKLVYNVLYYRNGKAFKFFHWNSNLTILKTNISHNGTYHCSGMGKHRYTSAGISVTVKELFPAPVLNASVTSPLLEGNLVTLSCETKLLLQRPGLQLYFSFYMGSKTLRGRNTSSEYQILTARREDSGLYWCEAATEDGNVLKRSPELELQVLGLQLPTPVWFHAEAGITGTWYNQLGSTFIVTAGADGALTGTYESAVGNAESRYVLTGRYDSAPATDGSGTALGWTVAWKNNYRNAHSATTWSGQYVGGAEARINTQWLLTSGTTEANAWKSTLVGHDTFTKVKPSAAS

Chain of monomeric FcγRIIIa-158V (human) (P08637 17-208 F176V limits assumed): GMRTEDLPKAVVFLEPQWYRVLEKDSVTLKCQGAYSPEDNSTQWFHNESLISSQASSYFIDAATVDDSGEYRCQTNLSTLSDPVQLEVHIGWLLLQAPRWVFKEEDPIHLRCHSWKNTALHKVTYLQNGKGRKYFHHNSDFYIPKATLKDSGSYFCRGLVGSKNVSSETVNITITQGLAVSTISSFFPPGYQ
Chain of monomeric FcγRI (human) (P12314 16-292 limits assumed): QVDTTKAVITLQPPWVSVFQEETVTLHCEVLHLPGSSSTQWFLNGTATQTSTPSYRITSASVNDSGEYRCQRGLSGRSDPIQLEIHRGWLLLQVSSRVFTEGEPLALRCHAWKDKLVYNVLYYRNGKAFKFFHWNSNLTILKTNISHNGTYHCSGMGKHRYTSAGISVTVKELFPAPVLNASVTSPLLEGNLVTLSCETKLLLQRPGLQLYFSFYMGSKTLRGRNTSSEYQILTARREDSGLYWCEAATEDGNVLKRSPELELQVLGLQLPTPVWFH
Chain of monomeric FcγRIIIa-158F (human) (P08637 17-208 limits assumed): as the sequence (P08637 17-208 F176V limits assumed) above, with V160F counted along it
Chain of monomeric FcγRIIa-131R (human) (P12318 34-217 H167R limits assumed): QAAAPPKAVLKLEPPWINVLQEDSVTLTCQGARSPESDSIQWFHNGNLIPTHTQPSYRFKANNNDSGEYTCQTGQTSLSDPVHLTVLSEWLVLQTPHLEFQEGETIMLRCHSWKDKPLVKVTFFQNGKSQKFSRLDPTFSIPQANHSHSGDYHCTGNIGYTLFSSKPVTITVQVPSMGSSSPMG
Chain of monomeric FcγRIIa-131H (human) (P12318 34-217 limits assumed): as the sequence (P12318 34-217 H167R limits assumed) above, with R134H counted along it
Chain of monomeric FcγRIIb (human) (P31994 43-217 limits assumed): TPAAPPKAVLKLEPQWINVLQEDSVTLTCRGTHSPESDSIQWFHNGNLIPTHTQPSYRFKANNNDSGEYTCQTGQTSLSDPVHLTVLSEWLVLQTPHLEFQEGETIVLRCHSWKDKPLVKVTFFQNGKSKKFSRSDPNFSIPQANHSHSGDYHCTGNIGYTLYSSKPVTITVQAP

- Kd [1]: 38 µM
- Kd [2]: 22 µM
- Kd [3]: 390 µM
- Kd (monomeric FcγRI (human)): 0.136 µM
- koff (monomeric FcγRI (human)): 0.0203 s⁻¹
- kon (monomeric FcγRI (human)): 149000 M⁻¹ s⁻¹
- Kd [4]: 1.36 µM
- koff [4]: 0.033 s⁻¹
- kon [4]: 24300 M⁻¹ s⁻¹
- Kd [5]: 1.19 µM
- koff [5]: 0.0833 s⁻¹
- kon [5]: 70200 M⁻¹ s⁻¹
- MFI [6]: 709
Substance: Trastuzumab-LALA (antibody)
